# Experimental data reported in publication PMC3110755, “Inhibition of Cell Proliferation by an Anti-EGFR Aptamer”.
# Residue numbers refer to the chain shown, from its start.
# B1: E03 (ssRNA)
# RNA: GGCGCUCCGACCUUAGUCUCUGUGCUAGUAUAUCGCACGGAUUUAAUCGCCGUAGAAAAGCAUGUCAAAGCCGGAACCGUGUAGCACAGCAGA
# modifications: 2'-F pyrimidines
# B2: E07 (ssRNA)
# RNA: B1 RNA with U26C, A27G, G28C, U33A, C34U
# modifications: 2'-F pyrimidines
# How the values were obtained:
# [1] = biological target: EGFR ectodomain-Fc (human) (Homo sapiens (Human), UniProt P00533 25-645); test: filter; DPBS, 5 mM MgCl2, 25 C, 30 min; 0.1 nM RNA; conditions: tags: Fc fusion (R&D Systems); label: 5'-32P
# ErbB2 (human) = ErbB2 (human) (Homo sapiens (Human), UniProt P04626 23-652); test: filter; 10 nM RNA, 100 nM protein, DPBS 5 mM MgCl2, 25 C; conditions: label: internal alpha-32P
Binder,Kd [1] [nM],binding result (ErbB2 (human))
B1,~2.45,no binding
B2,,no binding
